The target of data set [1] is ceh-37 (C37E2.5) (Caenorhabditis elegans) (UniProt Q93356).
Data set [2] deals with ceh-36 (C37E2.4) (Caenorhabditis elegans) (UniProt Q93352).
Data set [3] concerns ceh-53 (C09G12.1) (Caenorhabditis elegans).
Data set [4] has as its target T1, ceh-34 (C10G8.6) (Caenorhabditis elegans) (UniProt Q94165).
T1 sequence: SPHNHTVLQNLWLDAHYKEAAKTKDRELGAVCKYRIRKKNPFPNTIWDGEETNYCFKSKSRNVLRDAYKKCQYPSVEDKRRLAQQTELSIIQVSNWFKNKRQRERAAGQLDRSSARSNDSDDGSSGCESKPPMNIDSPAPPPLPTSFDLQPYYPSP

Data set [5] deals with T2, atf-6 (F45E6.2) (Caenorhabditis elegans) (UniProt Q20435).
T2 sequence: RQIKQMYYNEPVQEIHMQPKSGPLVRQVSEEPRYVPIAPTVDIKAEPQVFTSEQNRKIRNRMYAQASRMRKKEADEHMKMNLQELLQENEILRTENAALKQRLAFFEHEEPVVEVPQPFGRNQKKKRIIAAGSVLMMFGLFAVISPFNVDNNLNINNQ

The target of data set [6] is T3, med-2 (K04C2.6) (Caenorhabditis elegans) (UniProt G5EF25).
T3 sequence: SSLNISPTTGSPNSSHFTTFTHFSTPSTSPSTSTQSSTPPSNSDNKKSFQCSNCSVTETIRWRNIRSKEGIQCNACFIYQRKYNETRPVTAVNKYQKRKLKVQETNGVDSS

Data set [7] addresses dmd-4 (C27C12.6) (Caenorhabditis elegans) (UniProt Q18248).
Data set [8] concerns the target T4, C27D6.4 (C27D6.4) (Caenorhabditis elegans) (UniProt Q4JFH9).
T4 sequence: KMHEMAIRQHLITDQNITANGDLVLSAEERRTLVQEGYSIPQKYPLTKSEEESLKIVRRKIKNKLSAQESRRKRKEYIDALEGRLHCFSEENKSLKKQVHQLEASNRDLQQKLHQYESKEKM

For data set [9], the target named is T5, C07E3.6 (C07E3.6) (Caenorhabditis elegans) (UniProt Q17792).
T5 sequence: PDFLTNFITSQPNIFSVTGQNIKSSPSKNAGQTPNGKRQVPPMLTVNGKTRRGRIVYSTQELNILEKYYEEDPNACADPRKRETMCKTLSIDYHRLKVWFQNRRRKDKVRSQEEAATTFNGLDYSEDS

For data set [10], the target named is atf-7 (C07G2.2) (Caenorhabditis elegans) (UniProt Q86MD3).
Data set [11] has as its target T6, end-1 (F58E10.2) (Caenorhabditis elegans) (UniProt G5EDN4).
T6 sequence: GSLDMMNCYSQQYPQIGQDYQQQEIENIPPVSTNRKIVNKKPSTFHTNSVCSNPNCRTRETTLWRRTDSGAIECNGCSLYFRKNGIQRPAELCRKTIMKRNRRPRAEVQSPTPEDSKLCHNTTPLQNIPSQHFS

Data set [12] deals with T7, end-3 (F58E10.5) (Caenorhabditis elegans) (UniProt Q9XUW7).
T7 sequence: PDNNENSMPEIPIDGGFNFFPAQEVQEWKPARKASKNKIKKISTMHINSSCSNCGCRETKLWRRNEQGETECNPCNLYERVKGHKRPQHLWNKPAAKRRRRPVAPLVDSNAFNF

Chain of ceh-53 (C09G12.1) (Caenorhabditis elegans) (chain, as listed by the source): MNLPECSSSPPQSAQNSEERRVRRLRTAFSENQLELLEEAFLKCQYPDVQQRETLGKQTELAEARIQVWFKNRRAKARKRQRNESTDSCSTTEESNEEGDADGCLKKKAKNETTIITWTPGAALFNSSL
Chain of ceh-36 (C37E2.4) (Caenorhabditis elegans) (Q93352 6-165): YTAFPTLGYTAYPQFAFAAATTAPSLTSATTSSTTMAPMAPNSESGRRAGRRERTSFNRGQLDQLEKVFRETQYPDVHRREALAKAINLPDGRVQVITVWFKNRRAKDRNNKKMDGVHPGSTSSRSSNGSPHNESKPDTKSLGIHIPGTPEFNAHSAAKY
Chain of ceh-37 (C37E2.5) (Caenorhabditis elegans) (Q93356 1-148): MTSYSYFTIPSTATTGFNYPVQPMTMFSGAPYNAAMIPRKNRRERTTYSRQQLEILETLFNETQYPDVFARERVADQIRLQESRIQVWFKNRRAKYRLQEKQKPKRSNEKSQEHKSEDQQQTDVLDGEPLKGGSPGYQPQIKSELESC
Chain of dmd-4 (C27C12.6) (Caenorhabditis elegans) (Q18248 1-114): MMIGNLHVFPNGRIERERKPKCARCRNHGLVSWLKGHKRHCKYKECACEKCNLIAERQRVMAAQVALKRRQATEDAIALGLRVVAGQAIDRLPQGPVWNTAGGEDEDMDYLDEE
Chain of atf-7 (C07G2.2) (Caenorhabditis elegans) (Q86MD3 339-508): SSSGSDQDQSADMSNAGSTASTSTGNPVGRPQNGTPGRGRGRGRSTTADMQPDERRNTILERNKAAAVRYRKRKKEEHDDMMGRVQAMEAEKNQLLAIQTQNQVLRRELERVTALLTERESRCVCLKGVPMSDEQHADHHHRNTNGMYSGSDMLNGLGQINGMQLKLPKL

Turning to “GCTAATCC (double strand) [8-mer GCTAATCC]”, the binding signal (PBM E-score (-0.5 to 0.5)) in [1] turned out to be 0.49; in data set [2], 0.493; in data set [3], 0.497.

As for “ATTAATCC (double strand) [8-mer ATTAATCC]”, the binding signal (PBM E-score (-0.5 to 0.5)) in data set [1] was found to be 0.492; in data set [2] it was 0.494; in data set [3] it was 0.495.

“GGATTAAA (double strand) [8-mer GGATTAAA]”: the binding signal (PBM E-score (-0.5 to 0.5)) amounted to 0.488 in data set [1] and 0.49 in data set [2].

In data set [4], “AAGTATCA (double strand) [8-mer AAGTATCA]” returned a binding signal (PBM E-score (-0.5 to 0.5)) of 0.468.

Regarding “TAATCCGA (double strand) [8-mer TAATCCGA]”, the binding signal (PBM E-score (-0.5 to 0.5)) in data set [1] worked out at 0.489.

As for “ACGTCAGA (double strand) [8-mer ACGTCAGA]”, the binding signal (PBM E-score (-0.5 to 0.5)) in data set [5] was found to be 0.476.

On to “GGATTAAC (double strand) [8-mer GGATTAAC]”, for which the results for the binding signal (PBM E-score (-0.5 to 0.5)) in [1], in data set [2] and in [3] were 0.492, 0.49 and 0.495, respectively.

As to “GGGTATAC (double strand) [8-mer GGGTATAC]”, the binding signal (PBM E-score (-0.5 to 0.5)) in data set [6] was 0.496.

On to “ACGGATTA (double strand) [8-mer ACGGATTA]”, for which the binding signal (PBM E-score (-0.5 to 0.5)) stood at 0.487 in [1] and 0.494 in data set [3].

Turning to “ATGATACC (double strand) [8-mer ATGATACC]”, the binding signal (PBM E-score (-0.5 to 0.5)) in [4] is 0.481.

Take “CACGTCAG (double strand) [8-mer CACGTCAG]”: the binding signal (PBM E-score (-0.5 to 0.5)) in data set [5] was determined as 0.473.

Take “AGTATCCA (double strand) [8-mer AGTATCCA]”: the binding signal (PBM E-score (-0.5 to 0.5)) in data set [6] is 0.495.

Take “AGGATTAA (double strand) [8-mer AGGATTAA]”: the results for the binding signal (PBM E-score (-0.5 to 0.5)) in data set [1], in data set [2] and in [3] were 0.491, 0.492 and 0.494, respectively.

The sequence “ACGTGGCC (double strand) [8-mer ACGTGGCC]” displayed a binding signal (PBM E-score (-0.5 to 0.5)) in [5] of 0.471.

For the sequence “CTAATCCC (double strand) [8-mer CTAATCCC]”, the binding signal (PBM E-score (-0.5 to 0.5)) stood at 0.49 in [2] and 0.496 in [3].

In the case of “AATGATAC (double strand) [8-mer AATGATAC]”, the binding signal (PBM E-score (-0.5 to 0.5)) in data set [7] was 0.482; in data set [4], 0.461.

“ATAATCCG (double strand) [8-mer ATAATCCG]” had a binding signal (PBM E-score (-0.5 to 0.5)) in data set [1] of 0.49.

With “ACCACGTA (double strand) [8-mer ACCACGTA]”, the binding signal (PBM E-score (-0.5 to 0.5)) in [5] came to 0.457.

Sequence “AGTATACC (double strand) [8-mer AGTATACC]” registered a binding signal (PBM E-score (-0.5 to 0.5)) in [6] of 0.499.

In turn, “CCACGTAG (double strand) [8-mer CCACGTAG]” came in with a binding signal (PBM E-score (-0.5 to 0.5)) in data set [5] of 0.478.

The sequence “GATATCCC (double strand) [8-mer GATATCCC]” displayed a binding signal (PBM E-score (-0.5 to 0.5)) in data set [4] of 0.466.

Regarding “ACTAATCC (double strand) [8-mer ACTAATCC]”, the binding signal (PBM E-score (-0.5 to 0.5)) in data set [2] stood at 0.49; in data set [3], 0.497.

Take “AAGTATAC (double strand) [8-mer AAGTATAC]”: the binding signal (PBM E-score (-0.5 to 0.5)) in [6] amounted to 0.499.

As for “CAGTATAC (double strand) [8-mer CAGTATAC]”, in [6], the binding signal (PBM E-score (-0.5 to 0.5)) came to 0.498.

In turn, “GGTATACC (double strand) [8-mer GGTATACC]” returned a binding signal (PBM E-score (-0.5 to 0.5)) in [6] of 0.496.

In the case of “GATAATCC (double strand) [8-mer GATAATCC]”, the binding signal (PBM E-score (-0.5 to 0.5)) in data set [1] worked out at 0.491.

As to “AGGGTATC (double strand) [8-mer AGGGTATC]”, the binding signal (PBM E-score (-0.5 to 0.5)) in data set [4] is 0.466.

In turn, “GTATACCA (double strand) [8-mer GTATACCA]” showed a binding signal (PBM E-score (-0.5 to 0.5)) in data set [6] of 0.495.

For “AAAGTATA (double strand) [8-mer AAAGTATA]”, the binding signal (PBM E-score (-0.5 to 0.5)) in data set [6] worked out at 0.496.

Take “AGTATACA (double strand) [8-mer AGTATACA]”: in [6], the binding signal (PBM E-score (-0.5 to 0.5)) was 0.498.

In [4], “ATATCCCC (double strand) [8-mer ATATCCCC]” came in with a binding signal (PBM E-score (-0.5 to 0.5)) of 0.474.

As to “AGGATTAG (double strand) [8-mer AGGATTAG]”, the binding signal (PBM E-score (-0.5 to 0.5)) in data set [2] amounted to 0.492; in data set [3], 0.496.

In data set [6], “AGGTATAC (double strand) [8-mer AGGTATAC]” came in with a binding signal (PBM E-score (-0.5 to 0.5)) of 0.496.

For “ACGTGGCA (double strand) [8-mer ACGTGGCA]”, the results for the binding signal (PBM E-score (-0.5 to 0.5)) in [8] and in [5] were 0.499 and 0.477, respectively.

“CGGTATAC (double strand) [8-mer CGGTATAC]” showed a binding signal (PBM E-score (-0.5 to 0.5)) in [6] of 0.495.

Turning to “GCCACGTA (double strand) [8-mer GCCACGTA]”, the binding signal (PBM E-score (-0.5 to 0.5)) in data set [8] came to 0.497; in data set [5], 0.48.

Take “TAATCCTA (double strand) [8-mer TAATCCTA]”: the binding signal (PBM E-score (-0.5 to 0.5)) in [2] was found to be 0.492.

For the sequence “CGGATTAG (double strand) [8-mer CGGATTAG]”, the binding signal (PBM E-score (-0.5 to 0.5)) in data set [3] worked out at 0.496.

For the sequence “CCACGTGG (double strand) [8-mer CCACGTGG]”, the binding signal (PBM E-score (-0.5 to 0.5)) in data set [8] was determined as 0.499; in data set [5], 0.48.

As to “AGTATACG (double strand) [8-mer AGTATACG]”, the binding signal (PBM E-score (-0.5 to 0.5)) in data set [6] was 0.496.

In turn, “GTATACTA (double strand) [8-mer GTATACTA]” came in with a binding signal (PBM E-score (-0.5 to 0.5)) in data set [6] of 0.499.

As for “CTTAATCC (double strand) [8-mer CTTAATCC]”, the binding signal (PBM E-score (-0.5 to 0.5)) in [2] was determined as 0.489; in data set [3], 0.494.

The sequence “AGTATACT (double strand) [8-mer AGTATACT]” registered a binding signal (PBM E-score (-0.5 to 0.5)) in [6] of 0.5.

In turn, “GGTATCAC (double strand) [8-mer GGTATCAC]” showed a binding signal (PBM E-score (-0.5 to 0.5)) in data set [4] of 0.476.

“ATTGATAC (double strand) [8-mer ATTGATAC]”: the binding signal (PBM E-score (-0.5 to 0.5)) was 0.487 in [7] and 0.467 in data set [4].

The sequence “GCTAATTA (double strand) [8-mer GCTAATTA]” yielded a binding signal (PBM E-score (-0.5 to 0.5)) in [9] of 0.496.

In the case of “GGGTATCA (double strand) [8-mer GGGTATCA]”, in data set [4], the binding signal (PBM E-score (-0.5 to 0.5)) was 0.49.

In data set [6], “GAGTATAC (double strand) [8-mer GAGTATAC]” displayed a binding signal (PBM E-score (-0.5 to 0.5)) of 0.499.

“AGTAATTA (double strand) [8-mer AGTAATTA]” displayed a binding signal (PBM E-score (-0.5 to 0.5)) in data set [9] of 0.494.

“AGGTATCA (double strand) [8-mer AGGTATCA]” came in with a binding signal (PBM E-score (-0.5 to 0.5)) in data set [4] of 0.474.

As to “CCACGTCA (double strand) [8-mer CCACGTCA]”, the figures for the binding signal (PBM E-score (-0.5 to 0.5)) in data set [8], in data set [10] and in data set [5] were 0.496, 0.496 and 0.488, respectively.

Turning to “GATACCCC (double strand) [8-mer GATACCCC]”, the binding signal (PBM E-score (-0.5 to 0.5)) in data set [4] was 0.48.

As to “ATGATATC (double strand) [8-mer ATGATATC]”, the figures for the binding signal (PBM E-score (-0.5 to 0.5)) in data set [11] and in data set [4] were 0.484 and 0.476, respectively.

On to “ATCTTATC (double strand) [8-mer ATCTTATC]”, for which the binding signal (PBM E-score (-0.5 to 0.5)) stood at 0.495 in data set [11] and 0.497 in data set [12].

On to “GGGGGATA (double strand) [8-mer GGGGGATA]”, for which the binding signal (PBM E-score (-0.5 to 0.5)) in data set [4] was determined as 0.463.

In the case of “GAGTATCA (double strand) [8-mer GAGTATCA]”, in data set [4], the binding signal (PBM E-score (-0.5 to 0.5)) is 0.46.

In the case of “CACGTGGC (double strand) [8-mer CACGTGGC]”, the binding signal (PBM E-score (-0.5 to 0.5)) is 0.499 in data set [8] and 0.464 in data set [5].

The sequence “AGGGATTA (double strand) [8-mer AGGGATTA]” registered a binding signal (PBM E-score (-0.5 to 0.5)) in [1] of 0.487.

On to “ACGTGGCT (double strand) [8-mer ACGTGGCT]”, for which the results for the binding signal (PBM E-score (-0.5 to 0.5)) in data set [8] and in data set [5] were 0.492 and 0.466, respectively.

Values taken from paper PMC4434323.
